Here are results for one substance from patent US20220401537A1.

The test addresses recombinant human ROR1 ectodomain containing a C-terminal Avi tag, biotinylated (human) (UniProt Q01973). The test can be described thus: cell-based or functional assay.
UniProt Q01973, sequence (Q01973 30-406): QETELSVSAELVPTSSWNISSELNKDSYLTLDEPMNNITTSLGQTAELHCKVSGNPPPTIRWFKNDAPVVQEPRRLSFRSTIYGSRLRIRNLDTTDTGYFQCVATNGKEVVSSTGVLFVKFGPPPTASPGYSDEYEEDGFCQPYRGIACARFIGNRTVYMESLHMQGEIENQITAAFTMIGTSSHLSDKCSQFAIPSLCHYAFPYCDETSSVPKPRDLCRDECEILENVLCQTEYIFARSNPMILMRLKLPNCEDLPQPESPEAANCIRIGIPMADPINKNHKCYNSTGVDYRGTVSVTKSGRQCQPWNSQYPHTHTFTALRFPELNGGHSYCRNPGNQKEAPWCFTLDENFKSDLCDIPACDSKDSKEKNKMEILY

Regarding “ROR1-specific 4-1BB/CD3ζ CAR backbone containing a StrepTag II (STII) sequence and two G4S linkers inserted between the R12 scFv and IgG4 hinge (from UniProt P10747 153-179; Q07011 214-255; P20963 52-163)”, the fraction of CAR T cells activated (Ca2+ mobilization, Fluo-4) during 20 minutes on a ROR1-containing bilayer is below 10%.
